Legend:
Experiment in all cases: NMR titration
[1] = target: Cx40CT (S251-V355)
[2] = target: Cx43CT (S255-I382) (UniProt P08050)
[3] = target: Cx45CT (K265-I396) (UniProt P28229)
Sequence of UniProt P28229 (P28229 265-396): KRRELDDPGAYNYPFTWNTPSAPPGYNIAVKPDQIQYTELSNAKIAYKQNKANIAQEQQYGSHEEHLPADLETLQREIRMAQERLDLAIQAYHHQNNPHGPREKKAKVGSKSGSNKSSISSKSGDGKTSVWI

Sequence of UniProt P08050 (P08050 255-382): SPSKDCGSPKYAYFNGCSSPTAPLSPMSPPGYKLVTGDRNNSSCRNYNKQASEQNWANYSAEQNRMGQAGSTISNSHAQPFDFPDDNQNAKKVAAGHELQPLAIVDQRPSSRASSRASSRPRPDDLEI

Kd [1]: 600 µM
Kd [2]: 278 µM
Kd [3]: 286 µM
Substance: UBA domain of CIP75 (M549-S596) (from UniProt Q99NB8 549-596) (domain or fragment)

Reference: PMC4783143
